Assay results from FireProtDB (doi:10.1016/0167-4838(91)90474-e).
Several values for one entry are separate records, joined by “and”; a condition that tells them apart may be missing. Equal values may be shown once.

Conditions: Gallus gallus, Absorbance, Sodium phosphate 0.06 M, reversible: yes, whole UniProt chain shown; for unfolding enthalpy (van 't Hoff): Thermal; for denaturant m value / denaturant midpoint (higher = more stable) / unfolding free energy: 25 °C, Urea

B1: Ovomucoid wild type, P01005 (protein)
chain: MAMAGVFVLFSFVLCGFLPDAAFGAEVDCSRFPNATDKEGKDVLVCNKDLRPICGTDGVTYTNDCLLCAYSIEFGTNISKEHDGECKETVPMNCSSYANTTSEDGKVMVLCNRAFNPVCGTDGVTYDNECLLCAHKVEQGASVDKRHDGGCRKELAAVSVDCSEYPKPDCTAEDRPLCGSDNKTYGNKCNFCNAVVESNGTLTLSHFGKC
unfolding enthalpy (van 't Hoff) (pH 5): 34 kcal/mol and 30 kcal/mol | unfolding enthalpy (van 't Hoff) (pH 5, transition: 3): 30 kcal/mol and 44 kcal/mol | denaturant m value (pH 7): 1.35 kcal/mol/M and 1.15 kcal/mol/M | denaturant midpoint (higher = more stable) (pH 7): 2.7 M and 2.8 M | unfolding free energy (pH 7): 4.65 kcal/mol and 3.39 kcal/mol | denaturant m value (pH 7, transition: 3): 1.01 kcal/mol/M and 1.03 kcal/mol/M and 1.02 kcal/mol/M | denaturant midpoint (higher = more stable) (pH 7, transition: 3): 7.3 M and 2.8 M and 6.9 M | unfolding free energy (pH 7, transition: 3): 7.66 kcal/mol and 3.39 kcal/mol and 7.42 kcal/mol | unfolding enthalpy (van 't Hoff) (pH 7): 58 kcal/mol and 37 kcal/mol | unfolding enthalpy (van 't Hoff) (pH 7, transition: 3): 82 kcal/mol and 54 kcal/mol and 46 kcal/mol
